Measurements as given in the nanobody polyreactivity screen of Harvey et al. (2022).

Experiment: yeast display, Sf9 membrane polyspecificity reagent, FACS + sequencing; frameworks hold sequencing errors
Method in brief: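 Sorting gates, low and high (top ~1%), were placed on anti-HA fluorescence to track expression and on streptavidin fluorescence to track reagent binding. A clone's polyreactivity label is taken from the gate it came out of. The reagent was 10% biotinylated, detergent-solubilized Sf9 membrane, applied for 1 hour at 4 °C to galactose-induced yeast display cells.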

Question: Which “polyreactivity (PSR sort gate)” value does the source give for “QDQLVESGGGLVQAGGSLRLSCAASVSTFVNYAMGWYRQAPGKEMELVAAMSWSGGSTYYADSVKGRFTISRDNAKNTVYLQMNSLKPEDTAVYYCAVYAYWRFRTYYYWGQGTQVTVSA” here?
Answer: high polyreactivity

Question: With “QDQLVESGGGLVQAGGSLRLSCAATGRIFERNAMGWYRQAPAKERELVARITSGGGTYYADSVKGRFTISRDNAKNTVYLQMNSLKPEDTAVYYCAVQYLYRKYRRYDYWGQGTQVTVSS” as the sequence, how does the “polyreactivity (PSR sort gate)” value read?
Answer: high polyreactivity

Question: With “QDQLVESGGGLVQAGGSLRLSCAATGSIFGFNTMGWYRQAPGKERELVPTINWRGGRTYYADSVKGRFTISRDNAKNTVYLLMNSLKPEDTAVYYFNTQGLAGQYQEHGYWGQGTQVTVSS” as the sequence, how does the “polyreactivity (PSR sort gate)” value read?
Answer: high polyreactivity

Question: Which “polyreactivity (PSR sort gate)” value does the source give for “QDQLVESGGGLVQAGGSLRLSCAAYGSTFERYVMGWYRQAPGKDRELVADINSGGSTNYADSVKGRFTISRDNAKNTVYLQMNSLKPEDTAVYYCAKDGWGGWWFPYRVKYGYWGQGSQVTVSS” here?
Answer: low polyreactivity

Question: Which “polyreactivity (PSR sort gate)” value does the source give for “QDQLVESGGGLVQAGGSLRLSCAPSGFIFEYNAMGWYRQAPGKESELVADISFSGGSTYYADSVKVRFTISRDNAKNTVYLQMKSLKPEDTAGYYCAARALASVSAHKYDYWGQGTQVTVSS” here?
Answer: low polyreactivity

Question: Which “polyreactivity (PSR sort gate)” value does the source give for “QDQLVESGGGLVQAGGSLRLSCAPSGRTFYSYAMGWYRQAPGKERELVATIDSGGRTNYADSVKGRFTISRDNAKNTVYLQMNSLKPEDTAVYYCAASVWNWYFGIRYDYWGQGTQVTVSS” here?
Answer: high polyreactivity

Question: Which “polyreactivity (PSR sort gate)” value does the source give for “QDQLVESGGGLVQAGGSLRLSCAPSGSIFYTNAMGWYRQAPRKERHLVAAISWGGGSTYYADSVKGRFTISRDNAKNTVYLQMNSLKAEDTAVYYCAARYYVYQQGFRSHVTKHYDYWGQGTQVTVSS” here?
Answer: low polyreactivity

Question: For “QDQLVESGGGLVQAGGSLRLSCDASGSTFYRYDMGRSRQAPGKERELFAAINQSGDSTYYADSVKGRFTISRDKAKNTVYLQMNSLKPEDTAVYYCAAVRSRYLAFYYWGQCTQVTVSS”, which “polyreactivity (PSR sort gate)” value is on record?
Answer: low polyreactivity

Question: For “QDQLVESGGGLVQAGGSLRLSCHSSGFIFTDYAMGWYRQAPGKERELVARITSGGASTYYADSVKGRFTISRDIAKNTVYLQMNSLKPEDTAVYYCAAQARCWGYVYWGQGTQVTVSS”, which “polyreactivity (PSR sort gate)” value is on record?
Answer: low polyreactivity

Question: With “QDQLVESGGGLVQAGGSLRLSCPASGFTFERNTMGWYRQAPGKERELVAVITRRGGNTNYADSVKGRFTISRDNAKNTVYLQMNSLKPEDTAVYYCAAYYSHYGTRYDYWGQGTQVTVSS” as the sequence, how does the “polyreactivity (PSR sort gate)” value read?
Answer: high polyreactivity

Question: With “QDQLVESGGGLVQAGGSLRLSCSASGRIFYYYTMGWYRQEPGKERELVAAISSGGSTNYADSVKGRFTISRDNAKNTVYLQMNSLKPEDTAVYYCNVELTTVGHWYYYRPGYDYWVQGTQVTVSS” as the sequence, how does the “polyreactivity (PSR sort gate)” value read?
Answer: low polyreactivity

Question: For “QDQLVESGGGLVQAGGSLRLSFAASVSTFTTYAKGWYRQAPGKERELVAAIDWSDGSITYYADSVKGRFTISRDNAKNTVYLQMNSLKPEDTAVYYCAKDNSQYGWGYDYWVQGTQVTVSS”, which “polyreactivity (PSR sort gate)” value is on record?
Answer: low polyreactivity

Question: Which “polyreactivity (PSR sort gate)” value does the source give for “QDQLVESGGGLVQAGGSLRLTCAASGFTFRRNAMGWYRQAPGKERELVAAISSRGGSTYYADSVKGRFTISRDNAKNTVYLQMNSLKPEDTAVYYCAAYYVPWGTLYHLDYWGQGTQVTVSS” here?
Answer: high polyreactivity

Question: For “QDQLVESGGGLVQAGRSLRLSCAASGSIYAFYAMGWYRQAPRKERELVAAISSRGGRTYYADSVKGRFTISRDNAKNTVYLQMNRLKPEETAVYYCAALYWRYLGYPVVRYYYWGQGTQVNVSS”, which “polyreactivity (PSR sort gate)” value is on record?
Answer: high polyreactivity

Question: With “QDQLVESGGGLVQAGRSLRLTCAASGSIIPGNAMGWYRQAPGKERELVAVIDFSGASTYYADSVKGRFTISRDNAKNTVYLQMNSLKPEDTADYWGQGTQVTVSS” as the sequence, how does the “polyreactivity (PSR sort gate)” value read?
Answer: low polyreactivity

Question: For “QDQLVESGGGLVQAGVSLRLSCAASGIISSDNAMGWYRQAPGKERELVAAITVSGGSTYYADSVKRRFTISRDNAKNTVYFQMNSLKPEDTAVYYCAADYSLEYGFDYWGQGTQVSVSS”, which “polyreactivity (PSR sort gate)” value is on record?
Answer: low polyreactivity

Question: Which “polyreactivity (PSR sort gate)” value does the source give for “QDQLVESGGGLVQAVGSLRLSCAASGSIFSFNAIGWYRQAPGKERELVAVITQRGGSTYYADSVKGRFTISRDNAKTTVYLQMNSLKPEDTAVDYCAARTPRGYYYWGQGTQVTVSS” here?
Answer: high polyreactivity

Question: Which “polyreactivity (PSR sort gate)” value does the source give for “QDQLVESGGGLVQEGRILRLISADSGRISRFNAMGWYRPAPGKERELVAAITRGASTYYADSVKGRFTISRDNAKNTVYLEMNSVKPEVTAVYYCAAAPSYSWTSVARYFYWGQGTQVPVSS” here?
Answer: high polyreactivity

Question: For “QDQLVESGGGLVQSGGSLRLSCAASGSILWSYAMGWYIQAPGKERELVAANTSGGSTYYADSVKGRFTISRDNAKNTVYLQMNSLKPEDTAVYFCAADRWRDFWFNEEYWGQGTQVTVSS”, which “polyreactivity (PSR sort gate)” value is on record?
Answer: high polyreactivity

Question: For “QDQLVESGGGLVQSGGSLRLSCAASGYIFGPYAMGWYRQAPGKEREFVATISGSVGSTYYADSVKGRFTISRDNGKNTVYLQMNSLKPQDTAVYYCNKDHSVYGYEYWGQGTQVTVSS”, which “polyreactivity (PSR sort gate)” value is on record?
Answer: low polyreactivity

Question: For “QDQLVESGGRLVQAGGSLRLSCAASGRTFYYYAMGWYRQAPGKERELVARIRSGGSTNYADSVKGRFTISRDNAKNSVYLQMNSLKPEDTAVYYCNALGAKGYVKGFDYWGQGTQVTVSS”, which “polyreactivity (PSR sort gate)” value is on record?
Answer: low polyreactivity

Question: With “QDQLVESGGVLVQAGGSLRLSCAASGSIFGYYAMGWYRQAPGKERELVARISYSGGTTYYADSVKGRFTNSRDNAKNTVYLQMNSQIPEDTAVYYCNARIPYSWRYGYWGQGTQVTVSS” as the sequence, how does the “polyreactivity (PSR sort gate)” value read?
Answer: high polyreactivity

Question: For “QDQLVESGRGLVEAGGSLRLSCAASGRILGRYAMGWNRQAPGKERELVAAISRSGGTTYYADSVKGRFTISRDNAKNTVYLEMNSLKPEDTAVYDCARLRVYAAVYDYWGQGTQVTVSS”, which “polyreactivity (PSR sort gate)” value is on record?
Answer: high polyreactivity

Question: With “QDQLVESGVGLVQAGGSLRLSCAASGFTFTRNAMGWYRQAPGKEREFVAAITRSGGSTYYADSVKGRFTISRDNAKNTVYLQMNSLKPEDTAVYYCAAEVSSFLYTPSYSTDDYWGQGTQVTVSS” as the sequence, how does the “polyreactivity (PSR sort gate)” value read?
Answer: high polyreactivity

Question: For “QDQLVESRGDLVQAGGSLRLSCAASGSIFYDYAMRWYRQAPGKERELVAASDSGRNTTYADSVKGRFTISRDNAKKTVYFQMNSLKPEATAVYYCKTDPGWFDDSPPDPYIYGGYDYWGQGTQVTVSS”, which “polyreactivity (PSR sort gate)” value is on record?
Answer: high polyreactivity

Question: Which “polyreactivity (PSR sort gate)” value does the source give for “QDQLVESRGGIVQAGGSLRLSCAASGSTFRLYAMGWYRQAPGKERELVAAISSGGTTKYADSVKGRFTNSRDNAKNTVYLQMNSLTPEDTAVYYCNAVYHWGNPGEYATLPRYDYWGQGTQVNVSS” here?
Answer: high polyreactivity

Question: Which “polyreactivity (PSR sort gate)” value does the source give for “QDQLVESRGGLVQAGGRLRLSCAASGSIFASNTIGWYRQAPGKEREVVAGITKIGSSTYYADSVKGRFTISRDNAKNTVYLQMNSLKPEDTAVYYCNAYGPNIYSARYDYWGQGTQVTVSS” here?
Answer: low polyreactivity

Question: With “QDQLVESRGGLVQAGGSLRLSSAASGFTLVVNAMGWYRQAPGKERELVAAITSRCGGTYYADSVKGRFTISRDKANNSVYLQMNSLKPEDTAVYYCAAPSLIVSTHRYGYWGQGTEVTVSS” as the sequence, how does the “polyreactivity (PSR sort gate)” value read?
Answer: low polyreactivity

Question: For “QDQLVESVGGLDQAGGSLRLSCAASGRIFVHNAMGWYRQAPGKEREFVAAISLRGGSTYYADSVKGRFTISRDNAKNTVYLQMNSLKTEDTAVYYCAAVPAHFYGFDYCGQGTQVTVSS”, which “polyreactivity (PSR sort gate)” value is on record?
Answer: low polyreactivity

Question: With “QDQLVESVGGLDQAGGSLRLSSAASGRTFWWNAMGWYRQAPGKERELVAVISYSGGSTYYADSVKGRFTISRDNAKNTVYLQMNSLKPEDTAVYYCAAATRVRGFTEYYWGQGTQVTVSS” as the sequence, how does the “polyreactivity (PSR sort gate)” value read?
Answer: high polyreactivity

Question: Which “polyreactivity (PSR sort gate)” value does the source give for “QDQLVESVGGLVQAGGSLRLSCAASGNTFRSYVLGWYRQAPGKERELVADISSGDGTNYADSVKGRFTISRDNAKNTVYLQMNSLKREDTAVYYCAKDVYNFRTTHSYFTGYDSWGQGTQVTVSS” here?
Answer: low polyreactivity

Question: Which “polyreactivity (PSR sort gate)” value does the source give for “QDQLVESVGGVVQAGGSLRLSCAASGRIIRTYAMGWYRQAPGKERELVATISYSSGRTYYADSVKGRFTISRDNAKNTVYLQMNSLKPEDTAVYYCARRRRSGSRQYYYWGQGTQVTVSS” here?
Answer: high polyreactivity

Question: For “QDQLVESVVGLDQAGVSLRLSSAASGRTFRKYAMGCSRQAHGKERELVAAITSSGARTYYADSVKGRFTISRDNAKNTVYLQMNSLKPEDTAVYYCNAVSPYYGIEFEYWGLGTQVTVSS”, which “polyreactivity (PSR sort gate)” value is on record?
Answer: high polyreactivity

Question: With “QDQLVETAGGLVQAGVTHTLSCAASAFTFRNYAMGWYRQAPGKESEFVAAISRRGGSTYYADSVKGRFTISRDNAKNTVYLQLNCLKPEDTAVYYCATEPGKQNTYRMDYWGQGTQVTVSS” as the sequence, how does the “polyreactivity (PSR sort gate)” value read?
Answer: high polyreactivity

Question: With “QDQLVETGGGLVQAGVSLRISCAASGSTFYYNAMGWYRQAPGKERELVAAITWSGDSTYYADSVKGRFTISRDNAKNTVYLQMNSLKPEDTAVYYCNAEYYDYFDYVSDYWGQGTQVTVSS” as the sequence, how does the “polyreactivity (PSR sort gate)” value read?
Answer: low polyreactivity

Question: Which “polyreactivity (PSR sort gate)” value does the source give for “QDQLVVSGGGLVHAGGSLRLSCAASGRIFHAYGMGWYRQAPGQERELVAAITWRGVSTYYADSVKGRFTISRDNAKNTVYLQMNSLKPEDTAVYYCAARVTPGRNGGGYWGQGTQVTVSS” here?
Answer: high polyreactivity

Question: Which “polyreactivity (PSR sort gate)” value does the source give for “QEQLEESGGGLVQAGGSLRLSCAASGFTLGRYAMGWYIQAPGKERELVAAINSSGGRTYYADSVNGRFTISRDTAKNTVYLQLNSLKPEDTAVYYCATVNVRGPPYDFWGQGTQVTVSS” here?
Answer: high polyreactivity

Question: Which “polyreactivity (PSR sort gate)” value does the source give for “QEQLHESGGGLVQAGGSLRLSCAASGTISYAGPIGWDRQAPGKAREFVAGIGVGSNTNYADSVKGRFTIIRDNAKNTVYLQMNSLKPEDTAVYYCAVGGYAPLGRPYWGQGTQVTVSS” here?
Answer: low polyreactivity

Question: For “QEQLQESGGGLVQAGGSLRLSCAASGYISQSSVMGWYRQAPGKEREFVASISYGATTYYADSVKGRFTISRDNAKNTVYLQTNSRKPEDTAVYYCAVWVKRGFSHRYWGQGTQVTVSS”, which “polyreactivity (PSR sort gate)” value is on record?
Answer: high polyreactivity

Question: With “QEQLQESGGGQVQAGGSLLLSCAASGNIIRYYYMGWYRQAPGKERELVAAITYGTSTNDADSVKGRFTISRDNAKNTVYLQMNSLKPEDTAVYYCAVDVNYGDPLDNWGQGTQVTVSS” as the sequence, how does the “polyreactivity (PSR sort gate)” value read?
Answer: high polyreactivity

Question: For “QEQLQESGGGQVQAGGSLLLSCAASGNIIRYYYMGWYRQAPGKERELVAAITYGTSTNYADSVKGRFTIRRDNAKNTVYLQMNSLKPEDTAVYYCAVDVNYGDPLDNWGQGTQVTVSS”, which “polyreactivity (PSR sort gate)” value is on record?
Answer: high polyreactivity
